Legend:
HEK293 cells [1] = test: Luminescence in sandwich background, HEK293 cells; assay type: cell-based, human
Procedure: (§1) The PCR library in the Id-OgLuc-HT7 sandwich background was screened for additional variants with increased luminescence compared to 9B8 opt+K33N in sandwich background. Selected variants were then assayed in HEK293 and NIH3T3 cells. […] 1F7 (F) (SEQ ID NOs: 84 and 85) and 15H1 (F) (SEQ ID NOs: 86 and 87) had at least 1.3 fold-increase in luminescence in E. coli. 1F7 (F) was brighter than 9B8 opt+K33N in the sandwich background in HEK293 and NIH3T3 cells.
(§2) The variants 9B8 opt+K33N+T39T+K43R+Y68D (“V2”; SEQ ID NOs: 92 and 93), 9B8 opt+K33N+L27V+K43R+Y68D (SEQ ID NOs: 339 and 340), 9B8 opt+K33N+L27V+T39T+K43R+S66N (SEQ ID NOs: 341 and 342), and 9B8 opt+K33N+L27V+T39T+K43R+Y68D (“L27V”; SEQ ID NOs: 88 and 89) were subcloned into the Id-OgLuc-HT7 sandwich background as described above and assayed in HEK293 and NIH3T3 cells as described above. The luminescence generated by the sandwiched variants were compared to the luminescence generated by the […] sandwich (SEQ ID NOs: 59 and 60) (Table 38). The L27V sandwich (SEQ ID NOs: 90 and 91) and V2 sandwich (SEQ ID NOs: 94 and 95) had at least 1.3× fold-increase in luminescence in HEK293 and NIH3T3 cells.
(§3) The sandwich and non-sandwich versions of the variants V2, 9B8 opt+K33N+L27V+K43R+Y68D, 9B8 opt+K33N+L27V+T39T+K43R+S66N, and L27V were assayed in HEK293 and NIH3T3 cells as described in Example 37. The luminescence generated by the non-sandwiched variants was compared to the luminescence generated by the sandwiched variants (Table 39).

NIH3T3 cells [2] = test: Luminescence in sandwich background, NIH3T3 cells; assay type: cell-based
Procedure: as §1, §2, §3

NIH3T3 cells [3] = test: Luminescence of OgLuc variants expressed in NIH3T3 cells; assay type: cell-based
Procedure: (§4) The PCR library in the pF4Ag-based non-fusion background was screened for additional variants with increased luminescence compared to 9B8 opt+K33N+170G (SEQ ID NOs: 68 and 69). Selected variants were then assayed in HEK293 and NIH3T3 cells. For each cell type, 15,000 cells were plated and grown overnight at 37° C. The next day, the cells were transfected as described in Example 25 with 10 ng pGL4.13 (Promega Corp.) as a transfection control and 100 ng of the OgLuc test DNA. The media was removed, and the cells were lysed with 100 μL of lysis buffer as described in Example 25 except the lysis buffer contained 100 mM MES pH 6.0 instead of HEPES, and luminescence measured using a GLOMAX® Luminometer.
(§5) Based on the above data, further combination variants were designed and generated (see Table 10) in the context of the pF4Ag-based non-fusion vector background without the 170G. The variants were analyzed in E. coli, HEK293 and NIH3T3 cells as described above and compared to 9B8 opt+K33N. The variants were also examined for luminescence with native coelenterazine.
(§6) The brightness of the variants expressed in HEK293 and NIH3T3 cells was measured as described previously. The luminescence of the variants was normalized to the luminescence generated by 9B8 opt (Table 27).

[4] = Enzyme kinetics of OgLuc variants in E. coli lysates; assay type: biochemical; details: PBI-3939, E. coli lysates
Procedure: Using methods known in the art, enzyme kinetic assays measuring luminescence were performed with the lysates of E. coli containing IV and the IV variants 15C1, 9B8, 9F6, and 9A3. […] Two fold serial dilutions of PBI-3939 in the assay buffer described previously in Example 26 were assayed with the diluted lysates. […] Variants 9B8 and 9F6 had higher Km values compared to IV while Km values for the other variants were unchanged.
Luminescence was measured on a TECAN® INFINITE® F500 luminometer.
The enzyme kinetics values were determined for the OgLuc variants as described previously, except luminescence was measured using a GLOMAX® luminometer. Three replicates were used for each variant.

[5] = Luminescence of 9B8 opt+K33N derived variants in E. coli; assay type: biochemical
Procedure: Luminescence generated from the lysates was measured using the novel PBI-3939 and native coelenterazine as substrates. The relative specificity of the variants for PBI-3939 and native coelenterazine was calculated as described previously.
A new OgLuc library was created using 9B8opt+K33N as a starting template. The random library was created using DIVERSIFY® PCR Random Mutagenesis Kit (ClonTech; Catalog #630703). Condition 5 (as listed in the user manual) was used to generate additional variants, and the average mutation rate was calculated to be 2.6 mutations per gene by compiling sequence data from 83 randomly selected clones. This PCR library was cloned into the pF4Ag-based, non-fusion vector background described previously and the sandwich background, i.e., Id-OgLuc-HT7 (described in Example 45). Variants in the pF4Ag-base non-fusion vector background are designated with (NF). Variants in the sandwich vector background are designated with (F). In order to clone the PCR product into both vectors, an amino acid, i.e., a glycine, was appended to the variant sequence in pF4Ag, generating a new position 170 in the OgLuc variant (“170G”). The 170G is present in the sandwich construct, but in this case is considered part of the linker between OgLuc and HT7. For each library, 4,400 E. coli clones were assayed as described previously with the following exceptions. […] The assay buffer contained 100 mM MES pH 6.0 instead of HEPES, and 35 mM thiourea. The assay volumes were as follows: 10 μL cells, 40 μL, lysis buffer, and 50 μL, assay buffer.
E. coli lysates containing the variants were prepared and analyzed as described previously. Luminescence generated from the lysates was measured using the novel PBI-3939 and native coelenterazine as substrates. The luminescence of the variants was normalized to the luminescence generated by 9B8 opt (Table 12). The relative specificity of the variants for PBI-3939 and native coelenterazine was calculated by dividing the luminescence of the variants using PBI-3939 as a substrate with the luminescence of the variants using native coelenterazine as a substrate (Table 12).

HEK293 cells [6] = test: Luminescence of OgLuc variants expressed in HEK293 cells; assay type: cell-based, human
Procedure: as §4, §5, §6

[7] = Thermal stability of OgLuc variants at 60° C.; assay type: physicochemical; details: 60° C., assay buffer MES pH 6.0
Procedure: Aliquots were removed at different time-points and placed on dry ice to freeze the samples. […] Luminescence was measured on a GLOMAX® luminometer (Promega Corp.).
The thermal stability of the variants at 60° C. was examined as described above, except the assay buffer contained 100 mM MES pH 6.0 instead of HEPES.

[8] = relative specificity for PBI-3939 compared to native coelenterazine

Molecule | Fold over 9B8 opt + K33N sandwich, HEK293 (HEK293 cells [1]; sandwich background) | Fold over 9B8 opt + K33N sandwich, NIH3T3 (NIH3T3 cells [2]; sandwich background) | Fold-decrease in luminescence in the presence of sandwich background, HEK 293 (HEK293 cells [1]; non-sandwich versus sandwich) | luminescence normalized to 9B8 opt, NIH3T3 (NIH3T3 cells [3]; PBI-3939) | Fold over 9B8 opt + K33N, NIH3T3 (NIH3T3 cells [3]; luminescence, PBI-3939) | Fold over Native Coelenterazine, NIH3T3 (NIH3T3 cells [3]; [8]) | Km [4] [µM] | Vmax [4] | fold-increase in relative specificity over 9B8 opt+K33N ([5]; in the three cell types examined) [× fold] | Fold over coelenterazine ([5]; luminescence with PBI-3939 divided by luminescence with native coelenterazine, bacterial lysates) | Fold over 9B8 ([5]; luminescence with PBI-3939 normalized to 9B8 opt, bacterial lysates) | Fold over Native Coelenterazine, E. coli [5, 8] | Fold-decrease in luminescence in the presence of sandwich background, NIH 3T3 cells (NIH3T3 cells [2]; non-sandwich versus sandwich) | luminescence normalized to 9B8 opt, HEK293 (HEK293 cells [6]; PBI-3939) | Fold over 9B8 opt + K33N, HEK293 (HEK293 cells [6]; luminescence, PBI-3939) | Fold over Native Coelenterazine, HEK293 (HEK293 cells [6]; [8]) | 1/2 life hours [7] [h]
L27V, T39T, K43R, Y68D Sand: L27V in Id-OgLuc-HT7 sandwich (SEQ ID NO: 91) (protein) MLGLSEQSVSISRCAGTRLPALLDEQQVNVLLYDMNGCYSRLKELVPTLPQNRKVSKVEILQHVIDYIRDLQLELNSESEVGTTGGRGLPVRAPLSTLNGEISALAAEAACVPADDRILCRVSLENLYFQASGGGGGAIAMVFTLEDFVGDWRQTAGYNLDQVLEQGGVSSLFQNLGVSVTPIQRIVLSGENGLKIDIHVIIPYEGLSGDQMGQIEKIFKVVYPVDDHHFKVILHYGTLVIDGVTPNMIDYFGRPYEGIAVFDGKKITVTGTLWNGNKIIDERLINPDGSLLFRVTINGVTGWRLCERILAGYLEPTTEDLYFQSDNDGSEIGTGFPFDPHYVEVLGERMHYVDVGPRDGTPVLFLHGNPTSSYVWRNIIPHVAPTHRCIAPDLIGMGKSDKPDLGYFFDDHVRFMDAFIEALGLEEVVLVIHDWGSALGFHWAKRNPERVKGIAFMEFIRPIPTWDEWPEFARETFQAFRTTDVGRKLIIDQNVFIEGTLPMGVVRPLTEVEMDHYREPFLNPVDREPLWRFPNELPIAGEPANIVALVEEYMDWLHQSPVPKLLFWGTPGVLIPPAEAARLAKSLPNCKAVDIGPGLNLLQEDNPDLIGSEIARWLSTLEISG | 1.7 | 1.4 | – | – | – | – | – | – | – | – | – | – | – | – | – | – | –
L27V, K43R, Y68D: 9B8 opt+K33N with L27V, K43R, Y68D (SEQ ID NO: 340) (protein) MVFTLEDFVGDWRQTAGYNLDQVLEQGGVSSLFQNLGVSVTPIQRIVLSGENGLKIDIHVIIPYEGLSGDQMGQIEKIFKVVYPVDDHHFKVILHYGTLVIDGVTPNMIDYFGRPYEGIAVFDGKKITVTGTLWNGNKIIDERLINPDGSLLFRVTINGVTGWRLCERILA | – | – | 8 | 1.5 | 0.8 | 98 | 13.7 | 130,000,000 RLU/0.5 sec | 5 | 110 | 1.3 | 98.3 | 22 | 1.6 | 0.9 | 101 | 23.2
